The subject of the data set is PSN1 or SUIT2. Nature of the data set: In vivo imaging of IRDye800-labeled antibodies in tumor-bearing mice. Also on record: species or system BALB/c nude mouse. The conditions noted are these: imaged 1, 3, 7 and 14 days after administration. Here is the method:
PSN1 or SUIT2 was transplanted to the back of each BALB/c nude mouse (female, 6-week-old); 10 days after the transplantation, each antibody (labeled with IRDye800 (Li-Cor)) was administered from a tail vein of the mouse. 1 day, 3 days, 7 days, and 14 days after the administration, the antibody distribution was analyzed using the in vivo imaging apparatus OV110 (Olympus).
In the figure, CD20 stands for the antihuman CD20 antibody, EpCAM for the antihuman EpCAM antibody, and Col. 4 for the antimouse type IV collagen antibody.

Regarding “antihuman CD20 antibody: monoclonal antibody against human B cells, does not react with SUIT2; control”, the “accumulation in tumor tissue” value (IRDye800-labeled antibody via tail vein 10 days after transplantation) was “accumulated selectively in tumor tissue due to an EPR effect”. Moreover, for the setting “IRDye800-labeled antibody via tail vein”, the “duration of stay in / disappearance from tumor tissue” value is on record as “disappeared from the tumor tissue earlier than the antimouse type IV collagen antibody”.
